Reference: article PMC5150656, “Detecting stoichiometry of macromolecular complexes in live cells using FRET” (Nature Communications, 2016)

target: T1, ECFP-tagged calmodulin (CaM) (UniProt P0DP23 1-149); test: FRET or BRET; FRET 2-hybrid (3^3-FRET and E-FRET) in single live HEK293 cells, room temperature, basal (resting) Ca2+: Tyrode's bath with 2 mM Ca2+; relative (effective) dissociation constants Kd,EFF; stoichiometry ratio ν = EA,max/ED,max; conditions: partners not purified
T1 construct: calmodulin (CaM); also called ECFP-CaM; ECFP fused CaM; source: HEK293, transiently transfected, in live cells

Binder | Kd
EYFP tagged myosin Va five tandem IQ domain truncation (IQ2-6) (domain or fragment, mouse myosin Va neck domain, five tandem IQ domains IQ2-6, residues M789-K920 (Uniprot Q99104); A three amino-acid linker 'AAA' joins EYFP with the peptide; source: HEK293, transiently transfected, in live cells) MQRAAITVQRYVRGYQARCYAKFLRRTKAATTIQKYWRMYVVRRRYKIRRAATIVIQSYLRGYLTRNRYRKILREYKAVIIQKRVRGWLARTHYKRTMKAIVYLQCCFRRMMAKRELKKLKIEARSVERYKK | ~0.025 µM
EYFP-tagged full length myosin Va neck domain peptide containing six IQ domains (IQ1-6) (domain or fragment, mouse myosin Va full length neck domain, six tandem IQ domains IQ1-6, residues L766-K920 (Uniprot Q99104); A three amino-acid linker 'AAA' joins EYFP with the peptide; source: HEK293, transiently transfected, in live cells) LRAACIRIQKTIRGWLLRKRYLCMQRAAITVQRYVRGYQARCYAKFLRRTKAATTIQKYWRMYVVRRRYKIRRAATIVIQSYLRGYLTRNRYRKILREYKAVIIQKRVRGWLARTHYKRTMKAIVYLQCCFRRMMAKRELKKLKIEARSVERYKK | ~0.025 µM
TMKAIVYLQCCFRRMMAKRELKKLKIEARSVERYKK (domain or fragment, mouse myosin Va neck domain, single IQ domain IQ6, residues T885-K920 (Uniprot Q99104); A three amino-acid linker 'AAA' joins EYFP with the peptide; also called EYFP-tagged IQ6 peptide; source: HEK293, transiently transfected, in live cells) [EYFP tagged myosin Va peptide containing a single IQ domain (IQ6)] | ~0.025 µM
EYFP tagged myosin Va two tandem IQ domain peptide (IQ5-6) (domain or fragment, mouse myosin Va neck domain, two tandem IQ domains IQ5-6, residues R862-K920 (Uniprot Q99104); A three amino-acid linker 'AAA' joins EYFP with the peptide; source: HEK293, transiently transfected, in live cells) REYKAVIIQKRVRGWLARTHYKRTMKAIVYLQCCFRRMMAKRELKKLKIEARSVERYKK | ~0.025 µM
EYFP tagged myosin Va three tandem IQ domain peptide (IQ4-6) (domain or fragment, mouse myosin Va neck domain, three tandem IQ domains IQ4-6, residues R837-K920 (Uniprot Q99104); A three amino-acid linker 'AAA' joins EYFP with the peptide; source: HEK293, transiently transfected, in live cells) RRAATIVIQSYLRGYLTRNRYRKILREYKAVIIQKRVRGWLARTHYKRTMKAIVYLQCCFRRMMAKRELKKLKIEARSVERYKK | ~0.025 µM
EYFP tagged myosin Va four tandem IQ domain peptide (IQ3-6) (domain or fragment, mouse myosin Va neck domain, four tandem IQ domains IQ3-6, residues R814-K920 (Uniprot Q99104); A three amino-acid linker 'AAA' joins EYFP with the peptide; source: HEK293, transiently transfected, in live cells) RTKAATTIQKYWRMYVVRRRYKIRRAATIVIQSYLRGYLTRNRYRKILREYKAVIIQKRVRGWLARTHYKRTMKAIVYLQCCFRRMMAKRELKKLKIEARSVERYKK | ~0.025 µM
